# Results reported in the DeepSol protein solubility set.
# Assay: soluble on expression in E. coli; label from the status in PepcDB or PDB records
row,Sequence,soluble on expression in E. coli
1,MGSDKIHHHHHHMSESAESVDLIKLPVSKLTLGMFVSAIDKNDQGRLAIANAGQIKHKDAILKLTKNGIKYVWVDTERSAEHCGFKRKVSNDSQVKKSIVTREKQQEQAQVILTEAKDLIRKVLSETFEGKAIEVAPFEALADSMIESVLLDEDALKCMSALRTKDAYLLEHSVNVAFLLVTFGKYLKLDRSMLREMAVGGILHDIGKIKVDNKVLHKPGKLTPEEFEHMKLHQVYALEIMSETKGLSQISKDVCLMHHEKLDGRGYPRGLKGDEIPLHGRMSCIVDIFDALTATRCYKEAMSPAAAFKILLSLTPFHLDQQLVYDFIRCIGVYPVGSLVELSDGRVGIVWASKDRDALHPIVKCFYSLKAKRYTEVVIVDLLKSELHIERGVSPSSLDIDPTPFY,not soluble
2,MKAKAILLASVLLVGCQTSQNTGNVQQHAQSLSAAGQGEAGKFTSQARWMDDGTSIAPDQDLWAFIGDELKMGIPENSRIREQKQKYLRNKSYLHDVTLRAEPYMYWIAGQVKKRNMPMELVLLPIVESAFDPHATSGANAAGIWQIIPSTGRNYGLKQTRNYDARRDVVASTTAALDMMQRLNKMFDGDWLLTVAAYNSGEGRVMRAIKANKARGKPTDFWSLSLPRETKLYVPKMLALSEILKNSKRYGVRLPTTDESRALARVRLNSPVEMAQVADMAGMSISKLKTFNAGVKGSTLGVSGPQYVMVPKKHAEQLRESLASGEIDAVQSQLIADNTPLNSRSYKVRSGDTLSGIASRLGVSTKDLQQWNNLRGSRLKIGQSLTVGAGSSAQRLANNSDSITYRVRKGDSLSSIARRHGVNIKDVMRWNHDTDNLQPGDQLTLFVKDNSTPDSLEHHHHHH,soluble
3,MAATITDDIVATVLESIEEKSYEDEKEKAGMIKDEANQFFKDQVYDVAADLYSVAIEIHPTAVLYGNRAQAYLKKELYGSALEDADNAIAIDPSYVKGFYRRATANMALGRFKKALTDYQAVVKVCPNDKDARAKFDECSKIVRRQKFEAAISTDHDKKTVAETLDINAMAIEDSYDGPRLEDKITKEFVLQLIKTFKNQQKLHKKYAFKMLLEFYNYVKSLPTMVEITVPTGKKFTICGDVHGQFYDLCNIFEINGYPSETNPYLFNGDFVDRGSFSVETIFTMIGFKLLYPNHFFMSRGNHESDVMNKMYGFEGEVKAKYTQQMCDMFTETFCWLPLCHLINEKIFVCHGGLFKEDGVTLEDIRKTDRNRQPPDEGIMCDLLWSDPQPINGRSPSKRGVGCQFGPDVTSKWCETNGIEYVVRSHEVKPEGYEMHHNGQCFTVFSAPNYCDQMNNKGAFITITGDNLTPRFTPFDAVPHPKLPPMAYANSLFGFN,not soluble
4,SLVCKNALQDLSFLEHLLQVKYAPKTWKEQYLGWDLVQSSVSAQQKLRTQENPSTSFCQQVLADFIGGLNDFHAGVTFFAIESAYLPYTVQKSSDGRFYFVDIMTFSSEIRVGDELLEVDGAPVQDVLATLYGSNHKGTAAEESAALRTLFSRMASLGHKVPSGRTTLKIRRPFGTTREVRVKWRYVPEGVGDLATIAPSIRAPQLQKSMRSFFPKKDDAFHRSSSLFYSPMVPHFWAELRNHYATSGLKSGYNIGSTDGFLPVIGPVIWESEGLFRAYISSVTDGDGKSHKVGFLRIPTYSWQDMEDFDPSGPPPWEEFAKIIQVFSSNTEALIIDQTNNPGGSVLYLYALLSMLTDRPLELPKHRMILTQDEVVDALDWLTLLENVDTNVESRLALGDNMEGYTVDLQVAEYLKSFGRQVLNCWSKGDIELSTPIPLFGFEKIHPHPRVQYSKPICVLINEQDFSCADFFPVVLKDNDRALIVGTRTAGAGGFVFNVQFPNRTGIKTCSLTGSLAVREHGAFIENIGVEPHIDLPFTANDIRYKGYSEYLDKVKKLVCQLINNDGTIILAEDGSFHHHHHH,soluble
5,MAHHHHHHMNFVFIYIVLISFFNKSRCDNELSVKGSLTVANLKISSKNNQENGILFVNEESEYKIGLNERSELIISKKKKPLVTIDEHENLNFFNLDLSVKILNIQGILKIMNVNQFQMFVHEDFSNSSNTKGWIGDQFFNYTSSCGGINLLGGYGKLSKGEIYKTFENIPSHSQIRIKCNFHFIDNWDNQTAYMKITTDEKEEKYYVWTDTHSQINKQNSINICGNTTGESKFFSIIDIIIPHNSNKLIIYFGTNIQKDEPNLISWGISNFQIYLI,not soluble
6,SETRGPQGAANPMDSSRSLGDLGPFPREVGRGAPLAPGARNPATAGASRSQGGGHEDRTADRALGPRAGEELDRESWVREKVLFLLHPERWLGTRGDPAREEVAGAEDLPHAGGEDHGEEPNYPSVFQREKRISGRRVAPPRDAADPPKYVLVRVEDYQVTQEVLQTSWAKGRMTTRTEEHFVTALTFRSSREGQPGERWGPAESRALQARTGASRVHAAGRRVSPSPGTWLEEIKL,soluble
7,MWRTEMRKFLVVLDDSRECLNAMRFAAMRAAHTGGGVAILSIIPPDEFNHWIGVGEVMREEARERIHAHFEVFAKWMRDKQGVEPELVIREGEAVPEIIAHVQEDPEIGVLVLGAGTDKKGPGPLVSQLSRSSGSLPIPITIVPGDLSKEKLEAIT,not soluble
8,MSLESVGDVLKRQPSRFHYQDLVQKIMKDPDVAAFVQQESLNQDELNRSISKFNQYITERDKFLRGDTDYIAKGYKPILVMNHGYADVSYEETPELIAAEKEAAIKKRLNLINFPSSLKNVSFLDVYRDDVQRLTVLKRMIEFVNDYPNNLKGLYLYGDFGVGKSFMVAALAHDLSEKRGVSSTLLHYPSFVIDVKNAIGDGNVKTLVDEIKLSEVLILDDIGAEQSTAWVRDEILQVILQYRMQENLPTFFTSNFNFEDLEKHFAKGKNGNDETWEARRVMERIRYLAEETRLEGVNRREGHHHHHH,soluble
9,DCLLPIVAAPMAGGPTTVALAQAVSGVGGFPFLAGGYKSVEALATEIAVLRASGGNFGVNLFVPSPDMVDAEAFRIYAAKLQSEALPYGLRLDPLPVMGDDDGWPDKLALLLNDPVPVVSFTFGLPAVRDIAALRCAGSRVLASVTLPAEAQAAMEAGVDGLVVQGPDAGGHSATYDPGRPFTPLKTVSLVRRVCAVSSLPVIAAGGVDGPVMVRALLQAGAAAVAIGTLLLRTKESGATQVHKDALANPAYTETVITHAFTGRPARTLRNGFVNRYHASAPLGYPAIHHLTRPLRQAAASAGDADVLHLWAGTGYRQAMDGSAVDVIQ,not soluble
10,MSLKAKIKELENNLERLRSDLQSKIQEIESIRSCKDSQLKWAQNTIDDTEMKMKSLLTELSNKETTIEKLSSEIENLDKELRKTKFQYKFLDQNSDASTLEPTLRKELEQIQVQLKDANSQIQAYEEIISSNENALIELKNELAKTKENYDAKIELEKKEKWAREEDLSRLRGELGEIRALQPKLKEGALHFVQQSEKLRNEVERIQKMIEKIEKMSTIVQLCKKKEMSQYQSTMKENKDLSELVIRLEKDAADCQAELTKTKSSLYSAQDLLDKHERKWMEEKADYERELISNIEQTESLREGHHHHHH,soluble
11,MSVKHHDVIIIGAGAAGLMCAATAGYRGRDVLVLDNAKQAGRKILISGGGRCNFTNLKVEPANFICGNPHFVKSALARYPSQQFIELVERHGIEYHERDHGQLFCNDSAKEIVTMLLTECEWAGVSIKLRTDILSVGKNEAGRFELNTSNGELSCDSLVIATGGLSMPKLGATPYGYQLAEQFGLKVLPTHAGLVPFTWHSEDKIRFEPLSGIAVPSRITAKDGTAFSEALLFTHRGLSGPAILQISNYWKAGETIKINLLPNMDAAQAIEQQLAAHPKQSLRNTLSLWLPKRLVEVLFDEVLLNKALNQLVHAERAKLVDDLHRWTVLMNGTEGYRTAEVTLGGVDTHELSSKTMEAIKVPGLFFIGEVMDVSGWLGGFNFQWAWASGVAAGKAV,not soluble
12,MGSDKIHHHHHHMAKFDNHPTVRWWREQSTNNPKTSTVALNSDSLRTLCLDAGADDVGFVEIYRPAIADQHAEILAVFPPTKTLISFVCCMNRESVRTPARSIANLEFHANYDHADEVARNLVKAFAQIGVRALNPSVAFPMEMDRYPDKKAWIISHKPVAVEAGLGHIGIHRNVIHPKFGNFIALGTVLIDTEVTEYAHPINYNPCIECKLCVAACPVGAIGADGSFSFSACYTHNYREFMGGFTDWTETIADSKSASDYRKKVSASESASMWQSLSFKPNYKAAYCIAACPAGEDVIAPFLSDRKAFIKDVVKPLQDKTETIYVVPGSDAENYVVKHFPNKTVKLVSSGIRPQSIQGFLFGLPLLFQRNQSEGLSAIYHFTFTGSESRRATVTIQNKMVRVQEGHLGKANISVTADSKTWLGFLGKEQNLIWALLRCKIRVSGSLKLLQAFGKCFPTCNIH,not soluble
13,MAASTSSSSSSSSSSLSSPSPCTWRYMTFTSFHGPDVRNTFLSHLRKQFNTNGITMFDDQRMERSQTLAPTLTQAIRESKIYIVLLSKNYASSSWCLDELLEILNCKEKRGQRVMTIFYGVNPSDVRKQTGEFGIAFNETCARKTEEERRKWSHALTCVGNITGVHVQDRDDEANMIEKIATDVSEKLNATESKDFDEMVGIKAHLTKIESLLSLDYDKVKIVGISGPAGIGKSTIARALHNLLSSSFHLSCFMENLISQSNPHSSLEYSSKLSLQEQLLSQVLNEKDIRIRHLGAIQERLHDQRVLIILDDVTSLEQLEVLANIKWYGPGSRIIVITKKKDILVQHGICDIYHVGFPTDADALKIFCLSAYRQTSPPDGSMKIHECEMFIKICGNLPLHLHVLGSALRGRSYGRVQSLCNLVSLADFV,not soluble
14,MGSDKIHHHHHHMIRVLLANPRGFCAGVDRAIEIVERALAMYGAPIYVRHEVVHNRFVVEDLEKKGAVFVENLEEVPEGSMLIFSAHGVSHEVRREAAARKLQIFDATCPLVTKVHVEVAKMDKEGKEIVMIGHQGHPEVEGTMGQIAKSKGTMYLVETAEDVARLQVKNESNLAYVTQTTLSVDDAARVIEALKQRFPKIIGPKKDDICYATQNRQDAVKKLVKLCDLVVVVGSPNSSNSNRLCEVARNENVEAYMVDQAEQLQESWLTNKRCIGITAGASAPEILVQQVLERLEQIAAKQSNQGVIIEELSGVLESVTFPLPKAEPVSFNKYI,not soluble
15,MSLEKLNLICVDDQREVLSAVLQDLEPLNKWLNIEDCESADEVLELMDELDADGEMIALIISDHVMPGKTGVELLTEISKDSRFVRTRKVLLTGQATHTDTINAINSAGIDRYFEKPWQANQLIECVRNLVTQYIFDEGHHHHHH,not soluble
16,MGSDKIHHHHHHMFKDYQPKKGFDEYFSSDDFLPRSSLEPLLTSLGEMGLHQLNISHEIARKLLLRHGATFRLNDSGSKGSERILPFDPLPRVIGSLEWLGLERGLIQRLEAIDLFLADVYGKQQIINDGIIPRDFIESSDGWRPQMKGFVLPLGKWCHVSGLDLIRDGNGEWLVLEDNLRCPSGVAYFLENRLVMKRIFPSLFNGRVVRPIEDYPSYLLKSLQELAVWTDTPKVVLLTPGVFNSAYFEHSYLAQQMGIQLVEGSDLVCQNQNVYLKTTSGIKKVDVIYRRIDDDYLDPKFFRKDSMLGVPGLIDVLKKGRVAIANAPGTGLADDKLIYTFVPEMIRYYLKEEPIINNVKTYVCARSSDLSFVLENLGKLVVKSVSEAGGYGMLIGPHSSQIDIDKFSAKIKANPRNYIAQPTLDLSTVPSLSDGEVYPCHVDLRPYVLRGKNTWVSPGGLTRVALKRDSLIVNSSQGGGCKDTWVVG,not soluble
17,MTMYQTINEWVDYIDKGCSVLHLDFNVFKKELSLDIKVFEDEGEYTHKISFQNVASAYYSADVGDMRLEKIDPEEYNWQVFEMSYHPEGIGNLSNSIIPEYQSNANFLIDMNRMLIAIEAETVRFDDQSFYAYQLNTKLEHHHHHH,soluble
18,MGSDKIHHHHHHMYPECAKLPTFLRTVHEDVDAQARSLFTLDQNYMQVDPGPFCGTMATCDFGTGLVVSFEQVNKRVLQVAAVPFGTAQVALILEAGEPTTHNQVGRIRNAGVVMAPGAEARLSAGANTRVCLISIAGEAADHLRSRYNFDPDSLRADIFLDPAETTALRGLVTEAYQRFSSPQADRSFDQASAAAFHEAVLSVTAWTCASSARTQNQHRVAGDCRTTALTAAIRLIDHNLHNPVTVEWLARTLGVSRRSLEQAFGEAFDTSPGRYIKVLRLNSLRQMLRDPSNAEVSIGDLAARCGLWHQGRLASEFRELFGVLPSEARG,not soluble
